Experimental data taken from patent US20080138349A1 (MacroGenics, published 2008).

T1: 2aR131Fcagl (FcγRIIA 131R-Fc) (UniProt P12318 34-217, limits assumed)
T1 construct: not shown: Fc part; label Fcagl is not explained
T1 sequence (looked up): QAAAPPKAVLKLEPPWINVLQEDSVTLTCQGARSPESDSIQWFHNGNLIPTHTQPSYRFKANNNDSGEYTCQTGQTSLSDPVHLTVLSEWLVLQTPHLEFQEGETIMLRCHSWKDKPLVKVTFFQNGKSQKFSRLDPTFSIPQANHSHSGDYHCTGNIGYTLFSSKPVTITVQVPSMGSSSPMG

T2: 2aH131Fcagl (FcγRIIA 131H-Fc) (UniProt P12318 34-217, limits assumed)
T2 construct: also called FcγRIIA H131; not shown: Fc part; label Fcagl is not explained
T2 sequence (looked up): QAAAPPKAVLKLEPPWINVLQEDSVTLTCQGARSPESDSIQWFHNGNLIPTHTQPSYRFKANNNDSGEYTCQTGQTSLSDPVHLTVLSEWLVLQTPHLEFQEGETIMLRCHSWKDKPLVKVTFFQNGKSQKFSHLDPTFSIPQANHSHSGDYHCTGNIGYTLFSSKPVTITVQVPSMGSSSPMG

T3: 2bfcagl (FcγRIIB-Fc) (UniProt P31994 43-217, limits assumed)
T3 construct: label not explained; may be m4 or an aglycosylated form of it; not shown: Fc part; label fcagl is not explained
T3 sequence (looked up): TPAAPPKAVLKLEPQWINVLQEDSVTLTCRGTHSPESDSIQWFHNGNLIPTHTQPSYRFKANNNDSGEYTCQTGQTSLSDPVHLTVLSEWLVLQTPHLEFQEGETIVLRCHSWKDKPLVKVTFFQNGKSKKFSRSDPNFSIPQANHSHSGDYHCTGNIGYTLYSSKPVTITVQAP

T4: FcγRIIB-Fc fusion protein, soluble dimeric: extracellular domain of FcγRIIB fused to the hinge-CH2-CH3 domain … (human, UniProt P31994 43-217, limits assumed)
T4 construct: extracellular domain; also called FcRIIB-Fc; FcR2B; not shown: human IgG2 hinge-CH2-CH3
T4 sequence (looked up): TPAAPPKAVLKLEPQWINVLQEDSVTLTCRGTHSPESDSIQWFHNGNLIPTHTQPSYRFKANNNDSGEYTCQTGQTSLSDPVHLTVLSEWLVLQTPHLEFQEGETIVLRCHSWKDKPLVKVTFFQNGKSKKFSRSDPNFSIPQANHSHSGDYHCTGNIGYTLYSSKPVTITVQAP


How the values were obtained:
[1] = target: T1, 2aR131Fcagl (FcγRIIA 131R-Fc); assay: BIAcore, 2B6 captured by soluble CD32B
FcγRIIIA 158V, soluble = target: T5, FcγRIIIA 158V, soluble (UniProt P08637 17-208, limits assumed); assay: BIAcore, 2B6 captured by soluble CD32B
T5 construct: also called 3aV158

[2] = target: T2, 2aH131Fcagl (FcγRIIA 131H-Fc); assay: BIAcore, 2B6 captured by soluble CD32B
FcγRIIIA 158F, soluble = target: T6, FcγRIIIA 158F, soluble (UniProt P08637 17-208, limits assumed); assay: BIAcore, 2B6 captured by soluble CD32B
T6 construct: also called 3aF158

2bfcagl (FcγRIIB-Fc) = target: T3, 2bfcagl (FcγRIIB-Fc); assay: BIAcore, 2B6 captured by soluble CD32B
C1q = target: T7, C1q; assay: BIAcore, 2B6 captured by soluble CD32B
T7 construct: also called first component of the complement cascade

[3] = target: T4, FcγRIIB-Fc fusion protein, soluble …; assay: BIAcore, ch4-4-20
[4] = target: T8, soluble monomeric FcγRIIIA, the extracellular region of FcγRIIIA joined to the linker-AVITAG sequence (UniProt P08637 17-208, limits assumed); assay: BIAcore
T8 construct: extracellular domain; also called FcRIIIA; FcR3A

[5] = target: T4, FcγRIIB-Fc fusion protein, soluble …; assay: BIAcore
FcγRIIIA [6] = target: T9, FcγRIIIA (UniProt P08637 17-208, limits assumed); assay: ELISA
T9 construct: also called CD16A

FcγRIIIA [7] = target: T9, FcγRIIIA; assay: ELISA; remark: listed apart in the source
[8] = target: T4, FcγRIIB-Fc fusion protein, soluble …; assay: ELISA of the ch4-4-20 Fc variant for FcγRIIB-Fc fusion protein, value listed beside the sensorgram
[9] = target: T8, soluble monomeric FcγRIIIA, the …; assay: BIAcore, antibody captured on BSA-FITC
FcγRIIIA [10] = target: T9, FcγRIIIA; assay: ELISA; remark: listed apart in the source

T5 sequence (P08637 17-208 F176V limits assumed): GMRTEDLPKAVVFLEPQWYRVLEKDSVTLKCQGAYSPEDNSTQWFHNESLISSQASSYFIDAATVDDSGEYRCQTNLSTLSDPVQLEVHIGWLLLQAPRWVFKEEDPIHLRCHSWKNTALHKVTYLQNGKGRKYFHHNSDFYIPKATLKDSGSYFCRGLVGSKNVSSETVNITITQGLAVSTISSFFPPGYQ
T8 sequence (P08637 17-208 limits assumed): as the sequence (P08637 17-208 F176V limits assumed) above, with V160F counted along it
T9 sequence (P08637 17-208 limits assumed): as the sequence (P08637 17-208 F176V limits assumed) above, with V160F counted along it
T6 sequence (P08637 17-208 limits assumed): as the sequence (P08637 17-208 F176V limits assumed) above, with V160F counted along it
T7 sequence (P02745 23-245, chain 1 of 3): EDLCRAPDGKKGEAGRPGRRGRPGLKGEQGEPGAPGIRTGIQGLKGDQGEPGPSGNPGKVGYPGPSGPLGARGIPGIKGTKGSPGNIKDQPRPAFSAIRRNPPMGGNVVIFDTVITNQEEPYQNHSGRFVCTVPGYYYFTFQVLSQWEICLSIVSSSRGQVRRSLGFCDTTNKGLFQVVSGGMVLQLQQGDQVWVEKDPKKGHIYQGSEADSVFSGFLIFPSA
T7 sequence (P02746 28-253, chain 2 of 3, further chain): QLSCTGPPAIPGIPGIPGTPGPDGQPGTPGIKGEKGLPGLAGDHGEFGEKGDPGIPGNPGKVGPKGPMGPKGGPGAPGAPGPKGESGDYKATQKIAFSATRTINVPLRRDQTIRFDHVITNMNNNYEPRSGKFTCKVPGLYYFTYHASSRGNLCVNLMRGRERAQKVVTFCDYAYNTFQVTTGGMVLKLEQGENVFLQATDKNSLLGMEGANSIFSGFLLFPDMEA
T7 sequence (P02747 29-245, chain 3 of 3, further chain): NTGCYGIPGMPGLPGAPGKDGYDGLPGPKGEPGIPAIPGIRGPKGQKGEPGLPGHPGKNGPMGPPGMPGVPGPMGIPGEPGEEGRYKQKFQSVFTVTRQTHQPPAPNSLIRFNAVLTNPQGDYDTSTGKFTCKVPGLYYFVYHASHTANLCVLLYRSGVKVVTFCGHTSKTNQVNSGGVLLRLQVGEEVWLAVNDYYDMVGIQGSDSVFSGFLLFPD

Row | koff [1] | koff (FcγRIIIA 158V, soluble) | koff [2] | koff (FcγRIIIA 158F, soluble) | koff (2bfcagl (FcγRIIB-Fc)) | koff (C1q) | ELISA, OD (FcγRIIIA [7]) | ELISA, OD [8] | Kd [9] | koff [9] | kon [9] | Binder | further results
1 | 0.127 s⁻¹ | 0.084 s⁻¹ | 0.034 s⁻¹ | 0.238 s⁻¹ | 0.094 s⁻¹ |  |  |  |  |  |  | ch-mAb 2B6 MgFc31/60 (P247L, D270E, N421K) (antibody) ASTKGPSVFPLAPSSKSTSGGTAALGCLVKDYFPEPVTVSWNSGALTSGVHTFPAVLQSSGLYSLSSVVTVPSSSLGTQTYICNVNHKPSNTKVDKKVEPKSCDKTHTCPPCPAPELLGGPSVFLFPPKLKDTLMISRTPEVTCVVVDVSHEEPEVKFNWYVDGVEVHNAKTKPREEQYNSTYRVVSVLTVLHQDWLNGKEYKCKVSNKALPAPIEKTISKAKGQPREPQVYTLPPSRDELTKNQVSLTCLVKGFYPSDIAVEWESNGQPENNYKTTPPVLDSDGSFFLYSKLTVDKSRWQQGKVFSCSVMHEALHNHYTQKSLSLSPGK | 
2 | 0.089 s⁻¹ | 0.112 s⁻¹ | 0.028 s⁻¹ | 0.293 s⁻¹ | 0.077 s⁻¹ | 0.079 s⁻¹ |  |  |  |  |  | ch-mAb 2B6 MgFc51/60 (Q419H, P396L with D270E) (antibody) ASTKGPSVFPLAPSSKSTSGGTAALGCLVKDYFPEPVTVSWNSGALTSGVHTFPAVLQSSGLYSLSSVVTVPSSSLGTQTYICNVNHKPSNTKVDKKVEPKSCDKTHTCPPCPAPELLGGPSVFLFPPKPKDTLMISRTPEVTCVVVDVSHEEPEVKFNWYVDGVEVHNAKTKPREEQYNSTYRVVSVLTVLHQDWLNGKEYKCKVSNKALPAPIEKTISKAKGQPREPQVYTLPPSRDELTKNQVSLTCLVKGFYPSDIAVEWESNGQPENNYKTTPLVLDSDGSFFLYSKLTVDKSRWQHGNVFSCSVMHEALHNHYTQKSLSLSPGK | 
3 | 0.095 s⁻¹ | 0.105 s⁻¹ | 0.024 s⁻¹ | 0.296 s⁻¹ | 0.078 s⁻¹ | 0.107 s⁻¹ |  |  |  |  |  | ch-mAb 2B6 MgFc59/60 (K370E, P396L with D270E) (antibody) ASTKGPSVFPLAPSSKSTSGGTAALGCLVKDYFPEPVTVSWNSGALTSGVHTFPAVLQSSGLYSLSSVVTVPSSSLGTQTYICNVNHKPSNTKVDKKVEPKSCDKTHTCPPCPAPELLGGPSVFLFPPKPKDTLMISRTPEVTCVVVDVSHEEPEVKFNWYVDGVEVHNAKTKPREEQYNSTYRVVSVLTVLHQDWLNGKEYKCKVSNKALPAPIEKTISKAKGQPREPQVYTLPPSRDELTKNQVSLTCLVEGFYPSDIAVEWESNGQPENNYKTTPLVLDSDGSFFLYSKLTVDKSRWQQGNVFSCSVMHEALHNHYTQKSLSLSPGK | 
4 |  |  |  |  |  |  |  |  |  |  |  | ch4-4-20 S298N, K360R, N361D (antibody) EPKSCDKTHTCPPCPAPELLGGPSVFLFPPKPKDTLMISRTPEVTCVVVDVSHEDPEVKFNWYVDGVEVHNAKTKPREEQYNNTYRVVSVLTVLHQDWLNGKEYKCKVSNKALPAPIEKTISKAKGQPREPQVYTLPPSREEMTRDQVSLTCLVKGFYPSDIAVEWESNGQPENNYKTTPPVLDSDGSFFLYSKLTVDKSRWQQGNVFSCSVMHEALHNHYTQKSLSLSPGK | Koff WT/Mut [3]: 0.67
5 |  |  |  |  |  |  | 1.1 OD | 0.13 OD | 75.4 nM | 0.1 s⁻¹ | 1.37e+06 M⁻¹ s⁻¹ | ch4-4-20 K288M, K334E (antibody) chain 1: not shown chain 2: DVVMTQTPLSLPVSLGDQASISCRSSQSLVHSNGNTYLRWYLQKPGQSPKVLIYKVSNRFSGVPDRFSGSGSGTDFTLKISRVEAEDLGVYFCSQSTHVPWTFGGGTKLEIKRTVAAPSVFIFPPSDEQLKSGTASVVCLLNNFYPREAKVQWKVDNALQSGNSQESVTEQDSKDSTYSLSSTLTLSKADYEKHKVYACEVTHQGLSSPVTKSFNRGEC | Kd [4]: 75.4 nM; koff [4]: 0.1 s⁻¹; Kd [5]: 95.6 nM; koff [5]: 0.089 s⁻¹; ELISA IIIA binding vs wt (FcγRIIIA [6]): 3 X; ELISA binding increase vs wt (FcγRIIIA [10]): 3 x
6 |  |  |  |  |  |  | 1.25 OD | 0.1 OD | 70.2 nM | 0.105 s⁻¹ | 1.43e+06 M⁻¹ s⁻¹ | ch4-4-20 Mut23 (antibody) chain 1: not shown chain 2: DVVMTQTPLSLPVSLGDQASISCRSSQSLVHSNGNTYLRWYLQKPGQSPKVLIYKVSNRFSGVPDRFSGSGSGTDFTLKISRVEAEDLGVYFCSQSTHVPWTFGGGTKLEIKRTVAAPSVFIFPPSDEQLKSGTASVVCLLNNFYPREAKVQWKVDNALQSGNSQESVTEQDSKDSTYSLSSTLTLSKADYEKHKVYACEVTHQGLSSPVTKSFNRGEC | 
